The record followed here is PMC7047619 (Arteriosclerosis, thrombosis, and vascular biology, 2020).

This assay has as its target wild-type αIIbβ3 on HEK 293 cells (Homo sapiens, UniProt P08514;P05106). In words: flow cytometry on cells.

B1: murine mAb 7E3 (antibody, V domains shown)
VH: EVQLQQSGTVLARPGASVKMSCEASGYTFTNYWMHWVKQRPGQGLEWIGAIYPGNSDTSYIQKFKGKAKLTAVTSTTSVYMELSSLTNEDSAVYYCTLYDGYYVFAYWGQGTLVTVSA
VL: EIVLTQSPVTLSVTPGDSVSLSCRASRDISNNLHWFQQTSHESPRLLIKYASQSMSGIPSRFSGSGSGTDFTLSINSVETEDFGMYFCQQTNSWPYTFGGGTKLEIK
Turning to B1, the binding result is “binds”.

B2: abciximab (Fab, V domains shown)
VH: B1 VH
VL: B1 VL
Turning to B2, the binding result is “binds”.
